We go through 47 variants from the Human Domainome abundance scans (Beltran et al. 2025).

The chains are these.
B1: POU domain, class 3, transcription factor 3, residues 408 to 463; numbered along this chain, P20264 (parent)
chain: KKRTSIEVSVKGALESHFLKCPKPSAQEITNLADSLQLEKEVVRVWFCNRRQKEKR

± gives the uncertainty stated by the source.

This data set covers variants of B1. Nature of the data set: abundance fitness (aPCA) (normalised: wild type 0, dead -1); higher = more abundant; growth selection in yeast, the domain comes from the species named. To be noted: Homo sapiens.
As to KKRTEIEVSVKGALESHFLKCPKPSAQEITNLADSLQLEKEVVRVWFCNRRQKEKR, the abundance fitness was -0.047 ± 0.1.
Turning to KKRTSIMVSVKGALESHFLKCPKPSAQEITNLADSLQLEKEVVRVWFCNRRQKEKR, the abundance fitness is -0.035 ± 0.075.
In the case of KKRTSIEVSVKGALESHFSKCPKPSAQEITNLADSLQLEKEVVRVWFCNRRQKEKR, the abundance fitness was -0.047 ± 0.069.
Then KKRTSIEVSVKGALESHFLICPKPSAQEITNLADSLQLEKEVVRVWFCNRRQKEKR, with -0.191 ± 0.1.
In the case of KKRTSIEVSVKGALESHFLSCPKPSAQEITNLADSLQLEKEVVRVWFCNRRQKEKR, the abundance fitness is -0.233 ± 0.078.
In the case of KKRTSIEVSVKGALESHFLYCPKPSAQEITNLADSLQLEKEVVRVWFCNRRQKEKR, the abundance fitness was -0.335 ± 0.11.
Then KKRTSIEVSVKGALESHFLGCPKPSAQEITNLADSLQLEKEVVRVWFCNRRQKEKR, with -0.366 ± 0.079.
Regarding KKHTSIEVSVKGALESHFLKCPKPSAQEITNLADSLQLEKEVVRVWFCNRRQKEKR, the abundance fitness is -0.273 ± 0.15.
Then KKITSIEVSVKGALESHFLKCPKPSAQEITNLADSLQLEKEVVRVWFCNRRQKEKR, with -0.023 ± 0.17.
With KKSTSIEVSVKGALESHFLKCPKPSAQEITNLADSLQLEKEVVRVWFCNRRQKEKR, the abundance fitness is 0.026 ± 0.081.
The result for KKVTSIEVSVKGALESHFLKCPKPSAQEITNLADSLQLEKEVVRVWFCNRRQKEKR reads 0.031 ± 0.079; that for KKWTSIEVSVKGALESHFLKCPKPSAQEITNLADSLQLEKEVVRVWFCNRRQKEKR, -0.155 ± 0.088.
Then KKRTSIEVSVKGALESHFLKCPKPSAQIITNLADSLQLEKEVVRVWFCNRRQKEKR, with -0.223 ± 0.26; and KKRTSIEVSVKGALESHFLKCPKPSAQAITNLADSLQLEKEVVRVWFCNRRQKEKR, with -0.118 ± 0.083.
As for KKRTSIEVSVKGALEHHFLKCPKPSAQEITNLADSLQLEKEVVRVWFCNRRQKEKR, the abundance fitness is -0.287 ± 0.17.
As to KKRTSIEVSVKGALEVHFLKCPKPSAQEITNLADSLQLEKEVVRVWFCNRRQKEKR, the abundance fitness is -0.261 ± 0.075.
The result for KKRTSIEVSVKGALEWHFLKCPKPSAQEITNLADSLQLEKEVVRVWFCNRRQKEKR reads -0.502 ± 0.088; that for KKRTSIEVSVKGALEYHFLKCPKPSAQEITNLADSLQLEKEVVRVWFCNRRQKEKR, -0.004 ± 0.14.
The result for KKRTSIEVSVKGALESHFLKCPKPSAQEITNLADSLQLEKEVVRVWFDNRRQKEKR reads -0.029 ± 0.2; that for KKRTSIEVSVKGALESHFLKCPKPSAQEITNLADSLQLEKEVVRVWFPNRRQKEKR, -0.657 ± 0.13.
In the case of KKRTSIEVSVKGALESHFLKCPKPSAQEITNLADSLQLEKEVVRVWFYNRRQKEKR, the abundance fitness worked out at 0.068 ± 0.1.
The result for KKRTSIEVSVKGALESHFLKCPKPSEQEITNLADSLQLEKEVVRVWFCNRRQKEKR reads 0.031 ± 0.087; that for KKRTSIEVSVKGALESHFLKCPKPSYQEITNLADSLQLEKEVVRVWFCNRRQKEKR, -0.087 ± 0.13; that for KKRTSIEVSVKGALESHFLKCPKPSMQEITNLADSLQLEKEVVRVWFCNRRQKEKR, -0.063 ± 0.1.
The result for KKRTSIEVSVKGALESHFLKCPKPSAQEIGNLADSLQLEKEVVRVWFCNRRQKEKR reads -0.072 ± 0.062.
Consider KKRTSIEVSVKGALESHFLKCPKPSAQEICNLADSLQLEKEVVRVWFCNRRQKEKR, for which the abundance fitness is -0.037 ± 0.12.
Turning to KKRTSIEVSVKGALESHFLKCPKPSAQEIENLADSLQLEKEVVRVWFCNRRQKEKR, the abundance fitness is -0.107 ± 0.11.
KKRTSIEVSVKGALESHFLKCPKPSAQEIRNLADSLQLEKEVVRVWFCNRRQKEKR: the abundance fitness was -0.17 ± 0.066.
Regarding KKRTSIEVSVKGALESHFLKCPKPSAQEITNLYDSLQLEKEVVRVWFCNRRQKEKR, the abundance fitness is -0.836 ± 0.18.
Turning to KKRTSIEVSVKGALESHFLKCPKPSAQEITNLADSLQLEKEVVRVWFCNERQKEKR, the abundance fitness was -0.538 ± 0.1.
The result for KKRTSIEVSVKGALESHFLKCPKPSAQEITNLADSLQLEKEVVRVWFCNQRQKEKR reads -0.275 ± 0.11.
Consider KKRTSIEVSVKGALESHFLKCPKPSAQEITNLADSLQLEKEVVRVWFCNWRQKEKR, for which the abundance fitness is -0.883 ± 0.15.
As for KKRTSIEVSVKGALESHFLKCPKPSAQEITNLADSRQLEKEVVRVWFCNRRQKEKR, the abundance fitness was -0.955 ± 0.081.
The result for KKRTSIEVSVKGALESHFLKCPKPSAQEITNLADSLQLPKEVVRVWFCNRRQKEKR reads -0.116 ± 0.1; that for KKRTSIEVSVKGALESHFLKCPKPSAQEITNLADSLQLLKEVVRVWFCNRRQKEKR, -0.719 ± 0.11.
With KKRTSIEVSVKGALESHFLKCPKPSAQEITNLADWLQLEKEVVRVWFCNRRQKEKR, the abundance fitness was -0.228 ± 0.12.
Take KKRTSIEVSVKGALESHFLKCPKPSAQEITNLADQLQLEKEVVRVWFCNRRQKEKR: the abundance fitness was -0.04 ± 0.13.
KKRTSIEVSVKGALESHFLKCPKPSAQEITNLADLLQLEKEVVRVWFCNRRQKEKR: the abundance fitness is -0.083 ± 0.076.
Then KKRTSIEVSVKGALESHFLKCPKPSAQEITNLADFLQLEKEVVRVWFCNRRQKEKR, with -0.177 ± 0.098; and KKRTSIEVSVKGALESHFLKCPKPSAQEITNLADNLQLEKEVVRVWFCNRRQKEKR, with -0.078 ± 0.13; and KKRTSIEVSVKGALESHFLKCPKPSAQEITNLADSLQLEKEVVRVWFCNRRQGEKR, with -0.212 ± 0.072.
Consider KKRTSIEVSVKGALESHFLKCPKPSAQEITNLADSLQLEKEVVRVWFCNRRQNEKR, for which the abundance fitness is -0.248 ± 0.24.
The result for KKRTSIEVSVKGALESHILKCPKPSAQEITNLADSLQLEKEVVRVWFCNRRQKEKR reads -0.973 ± 0.2.
As to KKRTSIEVSVKGALESHHLKCPKPSAQEITNLADSLQLEKEVVRVWFCNRRQKEKR, the abundance fitness was -0.932 ± 0.21.
On to KKRTSIEVSVKGALESHFLKCPKPSAQENTNLADSLQLEKEVVRVWFCNRRQKEKR, for which the abundance fitness was -0.982 ± 0.26.
Then KKRTSIEVSVKGALESHFLKCPKPSAQEWTNLADSLQLEKEVVRVWFCNRRQKEKR, with -0.903 ± 0.14.
For KKRTSIEVSVKGALESHFLKCPRPSAQEITNLADSLQLEKEVVRVWFCNRRQKEKR, the abundance fitness is -0.049 ± 0.063.
